From article PMC5542402 come the findings set out here.

Like-named read-outs stand apart in the source and are kept apart here.

For series [1], the target named is T1, PhoP (Mycobacterium tuberculosis, UniProt P71814 1-247). The experiment in a line: ITC.
Series [2] addresses T1, PhoP. As to the kind of experiment: ITC. This is another data set of the same source.

B1: sel36m (dsDNA)
DNA 1: GATTCACAGCTGATACACAGGATCTAG
DNA 2: CTAGATCCTGTGTATCAGCTGTGAATC
As usually defined, the Kd is the free concentration of one partner at which half of the binding sites on the other are occupied at equilibrium, for simple one-to-one binding. In series [1], B1 registered a Kd of 32.3 ± 4.12 nM.

B2: sel36 (dsDNA)
DNA 1: GATTCACAGCTGATTCACAGCATCTAG
DNA 2: CTAGATGCTGTGAATCAGCTGTGAATC
The molecule B2 had a Kd in series [2] of 8.03 ± 3.42 nM.
